The results in this text go back to patent US20240116985A1 (published 2024).

Starred links: 1 amine or outer side, 2 acyl side, 3 side chain; linkers in the order of their positions; H or OH if unused. Positions of bridges follow the written chain, without caps; N, C: chain ends. Non-standard residues stand in square brackets, D forms with d. Primed or numbered codes have the meaning given here. *: point of attachment. (4CF3PhAc)GAbu = (S)-2-amino-4-(N-(carboxymethyl)-2-(4-(trifluoromethyl)phenyl)acetamido)butanoic acid, O=C(Cc1ccc(C(F)(F)F)cc1)N(CC[C@H](N[*:1])C(=O)[*:2])CC(=O)[*:3]; (MeMorphBz)GAbu = (S)-2-amino-4-(N-(carboxymethyl)-4-(morpholinomethyl)benzamido)butanoic acid, O=C(c1ccc(CN2CCOCC2)cc1)N(CC[C@H](N[*:1])C(=O)[*:2])CC(=O)[*:3]; PyrS2″ = (S)-3-amino-1-((pent-4-en-1-yloxy)carbonyl)pyrrolidine-3-carboxylic acid (stapling residue), C=CCCCOC(=O)N1CC[C@@](N[*:1])(C(=O)[*:2])C1; (MorphAc)GAbu = (S)-2-amino-4-(N-(carboxymethyl)-2-morpholinoacetamido)butanoic acid, O=C(CN1CCOCC1)N(CC[C@H](N[*:1])C(=O)[*:2])CC(=O)[*:3]; TfeGA = (S)-2-amino-3-((carboxymethyl)(2,2,2-trifluoroethyl)amino)propanoic acid, O=C([C@H](CN(CC(=O)[*:3])CC(F)(F)F)N[*:1])[*:2]; PyrS2 = (S)-3-amino-1-((pent-4-en-1-yloxy)carbonyl)pyrrolidine-3-carboxylic acid, C=CCCCOC(=O)N1CC[C@@](N[*:1])(C(=O)[*:2])C1; (Pic)GAbu = (S)-2-amino-4-(N-(carboxymethyl)picolinamido)butanoic acid, O=C(c1ccccn1)N(CC[C@H](N[*:1])C(=O)[*:2])CC(=O)[*:3]; B5(22) = 2-amino-2-(pent-4-en-1-yl)hept-6-enoic acid (two alkene side chains), C=CCCCC(CCCC=C)(N[*:1])C(=O)[*:2]; HypEs5 = (2R,4S)-4-(pent-4-enoyloxy)pyrrolidine-2-carboxylic acid, C=CCCC(=O)O[C@H]1C[C@H](C(=O)[*:2])N([*:1])C1; GAbu = (S)-2-amino-4-((carboxymethyl)amino)butanoic acid, O=C([C@H](CCNCC(=O)[*:3])N[*:1])[*:2]; B5(3) = 2,2-bis(4-pentenyl)glycine (stitching residue), C=CCCCC(CCCC=C)(N[*:1])C(=O)[*:2]; B5 = 2-amino-2-(pent-4-en-1-yl)hept-6-enoic acid, C=CCCCC(CCCC=C)(N[*:1])C(=O)[*:2]; Phenylacetyl(2,3,4,5,6-F5) = O=C(Cc1c(F)c(F)c(F)c(F)c1F)*; Benzoyl(2,3,4,5,6-F5) = O=C(c1c(F)c(F)c(F)c(F)c1F)*; Acetyl(4-Me-piperazin-1-yl) = CN1CCN(CC(=O)*)CC1; Phe(3-COOH) = N[C@@H](Cc1cccc(C(=O)O)c1)C(=O)O; Ala(4-thiazolyl) = N[C@@H](Cc1cscn1)C(=O)O; Phe(2-Cl) = N[C@@H](Cc1ccccc1Cl)C(=O)O; Phe(3-F) = N[C@@H](Cc1cccc(F)c1)C(=O)O; Phe(4-F) = N[C@@H](Cc1ccc(F)cc1)C(=O)O; 1Nal = N[C@@H](Cc1cccc2ccccc12)C(=O)O; Phe(2-F) = N[C@@H](Cc1ccccc1F)C(=O)O; Bta = N[C@@H](Cc1csc2ccccc12)C(=O)O; αAllylPro = C=CC[C@@]1(C(=O)O)CCCN1; tBuAla = CC(C)(C)C[C@H](N)C(=O)O; 3Thi = N[C@@H](Cc1ccsc1)C(=O)O; Cha = N[C@@H](CC1CCCCC1)C(=O)O; Cit = NC(=O)NCCC[C@H](N)C(=O)O; S8 = C=CCCCCCC[C@](C)(N)C(=O)O; hSer = N[C@@H](CCO)C(=O)O

T1: B-cat-Halo (UniProt P35222 1-781)
T1 sequence (looked up): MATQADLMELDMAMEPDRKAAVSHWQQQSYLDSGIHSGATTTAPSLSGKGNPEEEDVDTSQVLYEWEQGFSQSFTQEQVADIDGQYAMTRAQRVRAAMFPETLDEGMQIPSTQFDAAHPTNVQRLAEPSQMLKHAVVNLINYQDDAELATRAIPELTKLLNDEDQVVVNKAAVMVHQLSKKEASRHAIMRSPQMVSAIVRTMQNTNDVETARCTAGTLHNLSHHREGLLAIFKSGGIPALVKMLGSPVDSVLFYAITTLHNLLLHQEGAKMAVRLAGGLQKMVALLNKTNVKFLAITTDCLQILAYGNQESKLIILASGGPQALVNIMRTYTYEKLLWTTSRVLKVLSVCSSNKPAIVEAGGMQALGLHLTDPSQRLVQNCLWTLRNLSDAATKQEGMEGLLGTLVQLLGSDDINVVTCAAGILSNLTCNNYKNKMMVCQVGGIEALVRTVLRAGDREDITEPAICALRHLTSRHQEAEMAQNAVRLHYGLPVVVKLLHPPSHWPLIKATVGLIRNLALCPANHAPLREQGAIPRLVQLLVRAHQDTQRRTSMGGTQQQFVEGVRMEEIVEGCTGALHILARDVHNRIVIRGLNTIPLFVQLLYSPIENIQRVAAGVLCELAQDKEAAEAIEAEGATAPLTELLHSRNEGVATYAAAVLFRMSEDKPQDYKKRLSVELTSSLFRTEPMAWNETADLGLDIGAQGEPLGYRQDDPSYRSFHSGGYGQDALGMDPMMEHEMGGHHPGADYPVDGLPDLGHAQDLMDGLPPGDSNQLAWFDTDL

T2: B-cat-Halo (beta-catenin HaloTag fusion construct expressed in HEK293 cells) (UniProt P35222 1-781)
T2 sequence (looked up): T1 sequence (looked up)

T3: B-cat-Halo (beta-catenin HaloTag construct expressed in HEK293 cells) (UniProt P35222 1-781)
T3 sequence (looked up): T1 sequence (looked up)

The first experiment concerns the target T1, B-cat-Halo. Put plainly: cell-based or functional assay.
Regarding Ac-[αAllylPro]D[tBuAla][B5(22)]D[(4CF3PhAc)GAbu]AAFL[PyrS2][3Thi][Bta]Q-NH2 (staple 1-4, 4-11) [I-2246], the “NanoBRET Abs IC50” value is 12.9 µM.

Take Ac-[αAllylPro]D[tBuAla][B5(3)]D[Phe(3-COOH)]AAFL[PyrS2″][3Thi][Bta]A-NH2 (staple 1-4, 4-11) [I-2257]: the “NanoBRET Abs IC50” value stood at 2.9 µM.

For the molecule Ac-[αAllylPro]D[tBuAla][B5(3)]D[Phe(3-COOH)]AAFF[PyrS2″][3Thi][Bta]A-NH2 (staple 1-4, 4-11) [I-2259], the “NanoBRET Abs IC50” value was 4.3 µM.

Take Ac-[αAllylPro]D[tBuAla][B5(22)]D[(MeMorphBz)GAbu]AAFL[PyrS2][3Thi][Bta]Q-NH2 (staple 1-4, 4-11) [I-2248]: the “NanoBRET Abs IC50” value was 21.5 µM.

For the molecule Ac-[αAllylPro]D[tBuAla][B5(3)]D[Phe(3-COOH)]AA[Phe(3-F)]L[PyrS2″][3Thi][Bta]A-NH2 (staple 1-4, 4-11) [I-2260], the “NanoBRET Abs IC50” value worked out at 3.1 µM.

For Ac-[αAllylPro]D[tBuAla][B5(22)]D[(MorphAc)GAbu]AAFL[PyrS2][3Thi][Bta]Q-NH2 (staple 1-4, 4-11) [I-2249], the “NanoBRET Abs IC50” value amounted to 42.2 µM.

Regarding Ac-[HypEs5]D[tBuAla][B5(3)]D[TfeGA]AAFL[PyrS2″][3Thi][Bta]Q-NH2 (staple 1-4, 4-11; also: staple double bonds reduced to -CH2-CH2-) [I-2265], the “NanoBRET Abs IC50” value was greater than 20 µM.

Take Ac-[αAllylPro]D[tBuAla][B5(3)]D[Phe(3-COOH)]AAFL[PyrS2″][Phe(3-F)][Bta]A-NH2 (staple 1-4, 4-11) [I-2261]: the “NanoBRET Abs IC50” value amounted to 6.4 µM.

Take Ac-[αAllylPro]D[tBuAla][B5(22)]D[GAbu](Benzoyl(2,3,4,5,6-F5))AAFL[PyrS2][3Thi][Bta]Q-NH2 (staple 1-4, 4-11) [I-2252]: the “NanoBRET Abs IC50” value stood at 17.5 µM.

Ac-[αAllylPro]D[tBuAla][B5(22)]D[GAbu](Phenylacetyl(2,3,4,5,6-F5))AAFL[PyrS2][3Thi][Bta]Q-NH2 (staple 1-4, 4-11) [I-2251]: the “NanoBRET Abs IC50” value was determined as 6.4 µM.

Ac-[αAllylPro]D[tBuAla][B5(3)]D[Phe(3-COOH)]AAFL[PyrS2″][Phe(4-F)][Bta]A-NH2 (staple 1-4, 4-11) [I-2263]: the “NanoBRET Abs IC50” value was 4.3 µM.

Consider Ac-[HypEs5]D[tBuAla][B5(3)]D[TfeGA]AAFL[PyrS2″][3Thi][Bta]Q-NH2 (staple 1-4, 4-11) [I-2264], for which the “NanoBRET Abs IC50” value worked out at 25.5 µM.

On to Ac-[αAllylPro]D[tBuAla][B5(3)]D[Phe(3-COOH)]AA[Phe(4-F)]L[PyrS2″][3Thi][Bta]A-NH2 (staple 1-4, 4-11) [I-2262], for which the “NanoBRET Abs IC50” value stood at 3.7 µM.

Consider Ac-[αAllylPro]D[tBuAla][B5(22)]D[GAbu](Acetyl(4-Me-piperazin-1-yl))AAFL[PyrS2][3Thi][Bta]Q-NH2 (staple 1-4, 4-11) [I-2250], for which the “NanoBRET Abs IC50” value is 36.2 µM.

For the molecule Ac-[αAllylPro]D[tBuAla][B5(22)]D[(Pic)GAbu]AAFL[PyrS2][3Thi][Bta]Q-NH2 (staple 1-4, 4-11) [I-2247], the “NanoBRET Abs IC50” value is 5.9 µM.

The next experiment deals with T2, B-cat-Halo (beta-catenin HaloTag fusion …). As to the kind of experiment: cell-based or functional assay.
In the case of Ac-[αAllylPro]D[tBuAla][B5(3)]DEAAFL[S8][Phe(2-Cl)][Bta]Q-NH2 (staple 1-4, 4-11) [I-1096], the “NanoBRET Abs IC50” value was determined as 8.6 µM.

Turning to Ac-[αAllylPro]D[tBuAla][B5(3)]DDAAFS[PyrS2″]F[Bta]S-NH2 (staple 1-4, 4-11) [I-1099], the “NanoBRET Abs IC50” value came out at 9 µM.

Regarding Ac-[αAllylPro]D[tBuAla][B5(3)]DDAAFL[S8][Phe(2-Cl)][Bta][dT]-NH2 (staple 1-4, 4-11) [I-1097], the “NanoBRET Abs IC50” value is greater than 20 µM.

Regarding Ac-[αAllylPro]D[Cha][B5(3)]DDAAFS[PyrS2″]F[Bta]S-NH2 (staple 1-4, 4-11) [I-1100], the “NanoBRET Abs IC50” value stood at 24.3 µM.

On to Ac-[αAllylPro]D[tBuAla][B5(3)]DDAAFS[PyrS2″][Phe(2-F)][Bta]S-NH2 (staple 1-4, 4-11) [I-1101], for which the “NanoBRET Abs IC50” value was 27 µM.

On to Ac-[αAllylPro]D[tBuAla][B5(3)]DDAAFL[S8][Phe(2-Cl)][Bta]Q-NH2 (staple 1-4, 4-11) [I-1095], for which the “NanoBRET Abs IC50” value is greater than 20 µM.

A further experiment has as its target T3, B-cat-Halo (beta-catenin HaloTag …). As to the kind of experiment: cell-based or functional assay.
As for Ac-[αAllylPro]D[tBuAla][B5]DDAAFN[PyrS2″][3Thi][Bta]N-NH2 (staple 1-4, 4-11) [I-816], the “NanoBRET Abs IC50” value came to 13.7 µM.

On to Ac-[αAllylPro]D[tBuAla][B5]DDAAFL[PyrS2][3Thi][Bta]H-NH2 (staple 1-4, 4-11) [I-802], for which the “NanoBRET Abs IC50” value came out at 4.8 µM.

On to Ac-[αAllylPro]D[tBuAla][B5(3)]DDAAF[Cit][PyrS2″][3Thi][Bta]Q-NH2 (staple 1-4, 4-11) [I-805], for which the “NanoBRET Abs IC50” value came to 18.5 µM.

On to Ac-[αAllylPro]D[tBuAla][B5(3)]DDAAF[hSer][PyrS2″][3Thi][Bta]H-NH2 (staple 1-4, 4-11) [I-804], for which the “NanoBRET Abs IC50” value amounted to 13.5 µM.

Ac-[αAllylPro]D[tBuAla][B5(3)]DDAAFF[PyrS2″][3Thi][Bta]Q-NH2 (staple 1-4, 4-11) [I-807]: the “NanoBRET Abs IC50” value came to 3.2 µM.

For Ac-[αAllylPro]D[tBuAla][B5(3)]DDAAF[Cit][PyrS2″][3Thi][Bta]H-NH2 (staple 1-4, 4-11) [I-806], the “NanoBRET Abs IC50” value is 21.6 µM.

Consider Ac-[αAllylPro]D[tBuAla][B5(3)]DDAAFF[PyrS2″][3Thi][Bta]H-NH2 (staple 1-4, 4-11) [I-808], for which the “NanoBRET Abs IC50” value is 4.4 µM.

For Ac-[αAllylPro]D[tBuAla][B5(3)]DDAAFN[PyrS2″][Ala(4-thiazolyl)][Bta]Q-NH2 (staple 1-4, 4-11) [I-811], the “NanoBRET Abs IC50” value was greater than 20 µM.

For Ac-[αAllylPro]D[tBuAla][B5]DDAAFN[PyrS2][1Nal][Bta]H-NH2 (staple 1-4, 4-11) [I-794], the “NanoBRET Abs IC50” value was 26.4 µM.

Turning to Ac-[αAllylPro]D[tBuAla][B5]DDAAFN[PyrS2″][3Thi][Bta][dH]-NH2 (staple 1-4, 4-11) [I-813], the “NanoBRET Abs IC50” value amounted to 20.9 µM.

Ac-[αAllylPro]D[tBuAla][B5(3)]DDAA[Ala(4-thiazolyl)]N[PyrS2″][3Thi][Bta]Q-NH2 (staple 1-4, 4-11) [I-812]: the “NanoBRET Abs IC50” value was 48.6 µM.

For Ac-[αAllylPro]D[tBuAla][B5(3)]DDAAFT[PyrS2″][3Thi][Bta]H-NH2 (staple 1-4, 4-11) [I-810], the “NanoBRET Abs IC50” value worked out at 18 µM.
